Paper PMC4113749 (Toxins, 2014)

B1: TcdA^1–1874-EGFP (domain or fragment)
chain: MSLISKEELIKLAYSIRPRENEYKTILTNLDEYNKLTTNNNENKYLQLKKLNESIDVFMNKYKTSSRNRALSNLKKDILKEVILIKNSNTSPVEKNLHFVWIGGEVSDIALEYIKQWADINAEYNIKLWYDSEAFLVNTLKKAIVESSTTEALQLLEEEIQNPQFDNMKFYKKRMEFIYDRQKRFINYYKSQINKPTVPTIDDIIKSHLVSEYNRDETVLESYRTNSLRKINSNHGIDIRANSLFTEQELLNIYSQELLNRGNLAAASDIVRLLALKNFGGVYLDVDMLPGIHSDLFKTISRPSSIGLDRWEMIKLEAIMKYKKYINNYTSENFDKLDQQLKDNFKLIIESKSEKSEIFSKLENLNVSDLEIKIAFALGSVINQALISKQGSYLTNLVIEQVKNRYQFLNQHLNPAIESDNNFTDTTKIFHDSLFNSATAENSMFLTKIAPYLQVGFMPEARSTISLSGPGAYASAYYDFINLQENTIEKTLKASDLIEFKFPENNLSQLTEQEINSLWSFDQASAKYQFEKYVRDYTGGSLSEDNGVDFNKNTALDKNYLLNNKIPSNNVEEAGSKNYVHYIIQLQGDDISYEATCNLFSKNPKNSIIIQRNMNESAKSYFLSDDGESILELNKYRIPERLKNKEKVKVTFIGHGKDEFNTSEFARLSVDSLSNEISSFLDTIKLDISPKNVEVNLLGCNMFSYDFNVEETYPGKLLLSIMDKITSTLPDVNKNSITIGANQYEVRINSEGRKELLAHSGKWINKEEAIMSDLSSKEYIFFDSIDNKLKAKSKNIPGLASISEDIKTLLLDASVSPDTKFILNNLKLNIESSIGDYIYYEKLEPVKNIIHNSIDDLIDEFNLLENVSDELYELKKLNNLDEKYLISFEDISKNNSTYSVRFINKSNGESVYVETEKEIFSKYSEHITKEISTIKNSIITDVNGNLLDNIQLDHTSQVNTLNAAFFIQSLIDYSSNKDVLNDLSTSVKVQLYAQLFSTGLNTIYDSIQLVNLISNAVNDTINVLPTITEGIPIVSTILDGINLGAAIKELLDEHDPLLKKELEAKVGVLAINMSLSIAATVASIVGIGAEVTIFLLPIAGISAGIPSLVNNELILHDKATSVVNYFNHLSESKKYGPLKTEDDKILVPIDDLVISEIDFNNNSIKLGTCNILAMEGGSGHTVTGNIDHFFSSPSISSHIPSLSIYSAIGIETENLDFSKKIMMLPNAPSRVFWWETGAVPGLRSLENDGTRLLDSIRDLYPGKFYWRFYAFFDYAITTLKPVYEDTNIKIKLDKDTRNFIMPTITTNEIRNKLSYSFDGAGGTYSLLLSSYPISTNINLSKDDLWIFNIDNEVREISIENGTIKKGKLIKDVLSKIDINKNKLIIGNQTIDFSGDIDNKDRYIFLTCELDDKISLIIEINLVAKSYSLLLSGDKNYLISNLSNTIEKINTLGLDSKNIAYNYTDESNNKYFGAISKTSQKSIIHYKKDSKNILEFYNDSTLEFNSKDFIAEDINVFMKDDINTITGKYYVDNNTDKSIDFSISLVSKNQVKVNGLYLNESVYSSYLDFVKNSDGHHNTSNFMNLFLDNISFWKLFGFENINFVIDKYFTLVGKTNLGYVEFICDNNKNIDIYFGEWKTSSSKSTIFSGNGRNVVVEPIYNPDTGEDISTSLDFSYEPLYGIDRYINKVLIAPDLYTSLININTNYYSNEYYPEIIVLNPNTFHKKVNINLDSSSFEYKWSTEGSDFILVRYLEESNKKILQKIRIKGILSNTQSFNKMSIDFKDIKKLSLGYIMSNFKSFNSENELDRDHLGFKIIDNKTYYYDEDSKLVKGLININNSLFYFDPIEFNLVTGWQTINGKKYYFDINTGAALTS

Assays:
Settings in all cases: both partners purified
recombinant Rac1 = recombinant Rac1 (UniProt P63000 1-192); test: MST
[1] = biological target: GST-fused TcdA CROPs (combined repetitive oligopeptides of Clostridium difficile toxin A) (Clostridium difficile (strain VPI 10463), UniProt P16154 1875-2710); test: pull-down
TcdA^1–1874-EGFP = biological target: B1; test: MST

Binder: B1
- Kd (recombinant Rac1): 3320 ± 360 nM

B2: TcdA^1102–1847 (intermediate domain of toxin A) (domain or fragment)
chain: SAGIPSLVNNELILHDKATSVVNYFNHLSESKKYGPLKTEDDKILVPIDDLVISEIDFNNNSIKLGTCNILAMEGGSGHTVTGNIDHFFSSPSISSHIPSLSIYSAIGIETENLDFSKKIMMLPNAPSRVFWWETGAVPGLRSLENDGTRLLDSIRDLYPGKFYWRFYAFFDYAITTLKPVYEDTNIKIKLDKDTRNFIMPTITTNEIRNKLSYSFDGAGGTYSLLLSSYPISTNINLSKDDLWIFNIDNEVREISIENGTIKKGKLIKDVLSKIDINKNKLIIGNQTIDFSGDIDNKDRYIFLTCELDDKISLIIEINLVAKSYSLLLSGDKNYLISNLSNTIEKINTLGLDSKNIAYNYTDESNNKYFGAISKTSQKSIIHYKKDSKNILEFYNDSTLEFNSKDFIAEDINVFMKDDINTITGKYYVDNNTDKSIDFSISLVSKNQVKVNGLYLNESVYSSYLDFVKNSDGHHNTSNFMNLFLDNISFWKLFGFENINFVIDKYFTLVGKTNLGYVEFICDNNKNIDIYFGEWKTSSSKSTIFSGNGRNVVVEPIYNPDTGEDISTSLDFSYEPLYGIDRYINKVLIAPDLYTSLININTNYYSNEYYPEIIVLNPNTFHKKVNINLDSSSFEYKWSTEGSDFILVRYLEESNKKILQKIRIKGILSNTQSFNKMSIDFKDIKKLSLGYIMSNFKSFNSENELDRDHLGFKIIDNKTYYYDEDSKLVKGLININNSLFYFDPIE
- binding result [1]: binds

B3: isolated TcdA CROPs (TcdA^1875–2710) (domain or fragment)
chain: YKIINGKHFYFNNDGVMQLGVFKGPDGFEYFAPANTQNNNIEGQAIVYQSKFLTLNGKKYYFDNNSKAVTGWRIINNEKYYFNPNNAIAAVGLQVIDNNKYYFNPDTAIISKGWQTVNGSRYYFDTDTAIAFNGYKTIDGKHFYFDSDCVVKIGVFSTSNGFEYFAPANTYNNNIEGQAIVYQSKFLTLNGKKYYFDNNSKAVTGLQTIDSKKYYFNTNTAEAATGWQTIDGKKYYFNTNTAEAATGWQTIDGKKYYFNTNTAIASTGYTIINGKHFYFNTDGIMQIGVFKGPNGFEYFAPANTDANNIEGQAILYQNEFLTLNGKKYYFGSDSKAVTGWRIINNKKYYFNPNNAIAAIHLCTINNDKYYFSYDGILQNGYITIERNNFYFDANNESKMVTGVFKGPNGFEYFAPANTHNNNIEGQAIVYQNKFLTLNGKKYYFDNDSKAVTGWQTIDGKKYYFNLNTAEAATGWQTIDGKKYYFNLNTAEAATGWQTIDGKKYYFNTNTFIASTGYTSINGKHFYFNTDGIMQIGVFKGPNGFEYFAPANTDANNIEGQAILYQNKFLTLNGKKYYFGSDSKAVTGLRTIDGKKYYFNTNTAVAVTGWQTINGKKYYFNTNTSIASTGYTIISGKHFYFNTDGIMQIGVFKGPDGFEYFAPANTDANNIEGQAIRYQNRFLYLHDNIYYFGNNSKAATGWVTIDGNRYYFEPNTAMGANGYKTIDNKNFYFRNGLPQIGVFKGSNGFEYFAPANTDANNIEGQAIRYQNRFLHLLGKIYYFGNNSKAVTGWQTINGKVYYFMPDTAMAAAGGLFEIDGVIYFFGVDGVKAPGIYG
- Kd (TcdA^1–1874-EGFP): 1440 ± 70 nM
